Data on seven sequences can be found in the supplement of paper PMC5998384.

For data set [1], the system named is HeLa Kyoto. The data set is described as follows: solubility change mitosis vs G1/S (difference of NP-40 vs SDS log2 ratios) (log2 ratio difference); higher = more soluble in mitosis.
For data set [2], the system named is HeLa Kyoto. Put plainly: solubility in G1/S (NP-40 vs SDS abundance) (log2 ratio); higher = more soluble. The note with it: cell cycle stage: G1/S.
For data set [3], the system named is HeLa Kyoto. The data set is described as follows: melting temperature (median over replicates), in situ; higher = more thermally stable.
Data set [4] concerns HeLa Kyoto. The data set is described as follows: thermal stability score vs G1/S (z-score of summed log2 fold changes over temperatures); higher = more thermally stable than in G1/S.
The mark [5] stands for this setting: cell cycle stage: early G1 (4.5 h after nocodazole release).
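For melting temperature (median over replicates), in situ in this document: HeLa Kyoto cells synchronized by double thymidine or nocodazole block, proteins quantified by TMT10plex mass spectrometry, three independent biological replicates.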
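For solubility change mitosis vs G1/S (difference of NP-40 vs SDS log2 ratios) in this document: synchronized HeLa Kyoto cells (double thymidine block for G1/S, nocodazole release for mitosis), protein amounts in NP-40 versus SDS lysates quantified by mass spectrometry, three biological replicates.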
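For solubility in G1/S (NP-40 vs SDS abundance) in this document: HeLa Kyoto cells arrested at G1/S by double thymidine block, proteins quantified by TMT10plex mass spectrometry in mild NP-40 versus SDS extracts, three biological replicates.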
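For thermal stability score vs G1/S (z-score of summed log2 fold changes over temperatures) in this document: synchronized HeLa Kyoto cells, proteins quantified by TMT10plex mass spectrometry, three biological replicates, mitosis taken 0.5 h after nocodazole release, G1/S directly after double thymidine block.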

As for “MLRLVPTGARAIVDMSYARHFLDFQGSAIPQAMQKLVVTRLSPNFREAVTLSRDCPVPLPGDGDLLVRNRFVGVNASDINYSAGRYDPSVKPPFDIGFEGIGEVVALGLSASARYTVGQAVAYMAPGSFAEYTVVPASIATPVPSVKPEYLTLLVSGTTAYISLKELGGLSEGKKVLVTAAAGGTGQFAMQLSKKAKCHVIGTCSSDEKSAFLKSLGCDRPINYKTEPVGTVLKQEYPEGVDVVYESVGGAMFDLAVDALATKGRLIVIGFISGYQTPTGLSPVKAGTLPAKLLKKSASVQGFFLNHYLSKYQAAMSHLLEMCVSGDLVCEVDLGDLSPEGRFTGLESIFRAVNYMYMGKNTGKIVVELPHSVNSKL [ZADH2]”, the “solubility change mitosis (log2)” value in the data set on HeLa Kyoto [1] was -0.199. Also, the “solubility in G1/S (log2)” value in the data set on HeLa Kyoto [2] was determined as 0.198. Also, the results for the melting temperature in the data set with HeLa Kyoto [3] (cell cycle stage: G1/S) and in the data set with HeLa Kyoto [3] (cell cycle stage: mitosis) were 52.9 °C and 53.5 °C, respectively. Moreover, the results for the thermal stability score with HeLa Kyoto [4] (setting [5]) and in the data set on HeLa Kyoto [4] (cell cycle stage: mitosis) were 0.549 and 1.57, respectively.
For the sequence “MLRSCAARLRTLGALCLPPVGRRLPGSEPRPELRSFSSEEVILKDCSVPNPSWNKDLRLLFDQFMKKCEDGSWKRLPSYKRTPTEWIQDFKTHFLDPKLMKEEQMSQAQLFTRSFDDGLGFEYVMFYNDIEKRMVCLFQGGPYLEGPPGFIHGGAIATMIDATVGMCAMMAGGIVMTANLNINYKRPIPLCSVVMINSQLDKVEGRKFFVSCNVQSVDEKTLYSEATSLFIKLNPAKSLT [THEM4]”, in the data set with HeLa Kyoto [1], the “solubility change mitosis (log2)” value was -0.0775. Further, the “solubility in G1/S (log2)” value in the data set on HeLa Kyoto [2] was 0.0285. Further, the values for the melting temperature in the data set on HeLa Kyoto [3] (cell cycle stage: G1/S) and in the data set with HeLa Kyoto [3] (cell cycle stage: mitosis) were 54.7 °C and 56.2 °C, respectively. Further, the thermal stability score in the data set on HeLa Kyoto [4] (setting [5]) was 0.216; in the data set on HeLa Kyoto [4] (cell cycle stage: mitosis), -1.16.
For “MLRTSVLRLLGRTGASRLSLLEDFGPRYYSSGSLSAGDDACDVRAYFTTPIFYVNAAPHIGHLYSALLADALCRHRRLRGPSTAATRFSTGTDEHGLKIQQAAATAGLAPTELCDRVSEQFQQLFQEAGISCTDFIRTTEARHRVAVQHFWGVLKSRGLLYKGVYEGWYCASDECFLPEAKVTQQPGPSGDSFPVSLESGHPVSWTKEENYIFRLSQFRKPLQRWLRGNPQAITPEPFHHVVLQWLDEELPDLSVSRRSSHLHWGIPVPGDDSQTIYVWLDALVNYLTVIGYPNAEFKSWWPATSHIIGKDILKFHAIYWPAFLLGAGMSPPQRICVHSHWTVCGQKMSKSLGNVVDPRTCLNRYTVDGFRYFLLRQGVPNWDCDYYDEKVVKLLNSELADALGGLLNRCTAKRINPSETYPAFCTTCFPSEPGLVGPSVRAQAEDYALVSAVATLPKQVADHYDNFRIYKALEAVSSCVRQTNGFVQRHAPWKLNWESPVDAPWLGTVLHVALECLRVFGTLLQPVTPSLADKLLSRLGVSASERSLGELYFLPRFYGHPCPFEGRRLGPETGLLFPRLDQSRTWLVKAHRT [MARS2]”, in the data set on HeLa Kyoto [1], the “solubility change mitosis (log2)” value was -0.083. For the same sequence, in the data set on HeLa Kyoto [2], the “solubility in G1/S (log2)” value was found to be 0.0996. Besides, the melting temperature with HeLa Kyoto [3] (cell cycle stage: G1/S) is 55.2 °C; in the data set with HeLa Kyoto [3] (cell cycle stage: mitosis), 55.5 °C. In addition, the thermal stability score in the data set with HeLa Kyoto [4] (setting [5]) was -3.14; with HeLa Kyoto [4] (cell cycle stage: mitosis), -3.9.
For the sequence “MLRTTRGPGLGPPLLQAALGLGRAGWHWPAGRAASGGRGRAWLQPTGRETGVQVYNSLTGRKEPLIVAHAEAASWYSCGPTVYDHAHLGHACSYVRFDIIRRILTKVFGCSIVMVMGITDVDDKIIKRANEMNISPASLASLYEEDFKQDMAALKVLPPTVYLRVTENIPQIISFIEGIIARGNAYSTAKGNVYFDLKSRGDKYGKLVGVVPGPVGEPADSDKRHASDFALWKAAKPQEVFWASPWGPGRPGWHIECSAIASMVFGSQLDIHSGGIDLAFPHHENEIAQCEVFHQCEQWGNYFLHSGHLHAKGKEEKMSKSLKNYITIKDFLKTFSPDVFRFFCLRSSYRSAIDYSDSAMLQAQQLLLGLGSFLEDARAYMKGQLACGSVREAMLWERLSSTKRAVKAALADDFDTPRVVDAILGLAHHGNGQLRASLKEPEGPRSPAVFGAIISYFEQFFETVGISLANQQYVSGDGSEATLHGVVDELVRFRQKVRQFALAMPEATGDARRQQLLERQPLLEACDTLRRGLTAHGINIKDRSSTTSTWELLDQRTKDQKSAG [CARS2]”, the “solubility change mitosis (log2)” value in the data set with HeLa Kyoto [1] was -0.0653. Moreover, in the data set with HeLa Kyoto [2], the “solubility in G1/S (log2)” value is 0.0252. For the same sequence, the figures for the melting temperature in the data set on HeLa Kyoto [3] (cell cycle stage: G1/S) and in the data set with HeLa Kyoto [3] (cell cycle stage: mitosis) were 55.4 °C and 54.1 °C, respectively. Further, the thermal stability score with HeLa Kyoto [4] (setting [5]) is 0.291; with HeLa Kyoto [4] (cell cycle stage: mitosis), -0.0596.
Regarding “MLSALARPASAALRRSFSTSAQNNAKVAVLGASGGIGQPLSLLLKNSPLVSRLTLYDIAHTPGVAADLSHIETKAAVKGYLGPEQLPDCLKGCDVVVIPAGVPRKPGMTRDDLFNTNATIVATLTAACAQHCPEAMICVIANPVNSTIPITAEVFKKHGVYNPNKIFGVTTLDIVRANTFVAELKGLDPARVNVPVIGGHAGKTIIPLISQCTPKVDFPQDQLTALTGRIQEAGTEVVKAKAGAGSATLSMAYAGARFVFSLVDAMNGKEGVVECSFVKSQETECTYFSTPLLLGKKGIEKNLGIGKVSSFEEKMISDAIPELKASIKKGEDFVKTLK [MDH2]”, in the data set with HeLa Kyoto [1], the “solubility change mitosis (log2)” value was -0.0422. For the same sequence, in the data set with HeLa Kyoto [2], the “solubility in G1/S (log2)” value amounted to 0.383. Besides, the melting temperature in the data set with HeLa Kyoto [3] (cell cycle stage: G1/S) is 56.9 °C; with HeLa Kyoto [3] (cell cycle stage: mitosis) it was 57.2 °C. Besides, the thermal stability score in the data set with HeLa Kyoto [4] (setting [5]) was -0.843; in the data set on HeLa Kyoto [4] (cell cycle stage: mitosis) it was -1.62.
As for “MLSEVLLVSAPGKVILHGEHAVVHGKVALAVSLNLRTFLRLQPHSNGKVDLSLPNIGIKRAWDVARLQSLDTSFLEQGDVTTPTSEQVEKLKEVAGLPDDCAVTERLAVLAFLYLYLSICRKQRALPSLDIVVWSELPPGAGLGSSAAYSVCLAAALLTVCEEIPNPLKDGDCVNRWTKEDLELINKWAFQGERMIHGNPSGVDNAVSTWGGALRYHQGKISSLKRSPALQILLTNTKVPRNTRALVAGVRNRLLKFPEIVAPLLTSIDAISLECERVLGEMGEAPAPEQYLVLEELIDMNQHHLNALGVGHASLDQLCQVTRARGLHSKLTGAGGGGCGITLLKPGLEQPEVEATKQALTSCGFDCLETSIGAPGVSIHSATSLDSRVQQALDGL [MVK]”, the “solubility change mitosis (log2)” value in the data set with HeLa Kyoto [1] came to 0.006. Further, the “solubility in G1/S (log2)” value with HeLa Kyoto [2] was found to be 0.173. For the same sequence, the melting temperature in the data set on HeLa Kyoto [3] (cell cycle stage: G1/S) was found to be 53.8 °C; in the data set with HeLa Kyoto [3] (cell cycle stage: mitosis), 54.3 °C. Further, the thermal stability score with HeLa Kyoto [4] (setting [5]) was -0.0917; in the data set with HeLa Kyoto [4] (cell cycle stage: mitosis), 0.34.
For “MLSLDFLDDVRRMNKRQLYYQVLNFGMIVSSALMIWKGLMVITGSESPIVVVLSGSMEPAFHRGDLLFLTNRVEDPIRVGEIVVFRIEGREIPIVHRVLKIHEKQNGHIKFLTKGDNNAVDDRGLYKQGQHWLEKKDVVGRARGFVPYIGIVTILMNDYPKFKYAVLFLLGLFVLVHRE [SEC11A]”, the “solubility change mitosis (log2)” value in the data set on HeLa Kyoto [1] was -0.117. For the same sequence, the “solubility in G1/S (log2)” value in the data set with HeLa Kyoto [2] is -0.21. The melting temperature in the data set on HeLa Kyoto [3] (cell cycle stage: G1/S) stood at 53.2 °C; with HeLa Kyoto [3] (cell cycle stage: mitosis) it was 52.3 °C. Moreover, the thermal stability score with HeLa Kyoto [4] (setting [5]) worked out at 9.24; in the data set with HeLa Kyoto [4] (cell cycle stage: mitosis) it was 7.47.
